Target: Tetrameric photosystem I from Chroococcidiopsis sp. TS-821 isolated with DDM (Chroococcidiopsis sp. TS-821 (endogenous in TS-821 thylakoids))

stoichiometry N: 4
Substance: Tetrameric photosystem I from Chroococcidiopsis sp. TS-821 isolated with DDM (complex)
